Entries after “also recorded” stand apart in the source; their conditions may differ.
Columns and labels:
[1] = target: Aβ42WT (Homo sapiens, UniProt P05067); experiment: Circular dichroism spectroscopy of Aβ42WT β-sheet formation; assay type: biochemical; settings: MBP added to incubates, 37° C.
From the text: Aβ42 (□), MBP (□), Aβ42 with MBP (□).
The formation of β-sheet fibrils may be evaluated by circular dichroism (“CD”) spectroscopy. The technique is based on circularly polarized light. The secondary structure of proteins tends to “distort” the polarization toward the elliptical. The degree and direction of the distortion over a range of wavelengths produces spectra that are characteristic of the protein under examination and its secondary structure. One such method, suitable for use in embodiments of the present invention, is summarized below:
Preferably, purified protein is placed in detergent-free, low-salt buffer in a cuvette having a lightpath length on the order of 1 mm. The optimal concentration of the protein may be determined by standard techniques well-known in the art, and confirmed by comparing the spectrum over a range of concentrations, using an instrument (e.g., JASCO) and cuvette properly calibrated with a standard such as d-10-camphorsulfonic acid in water. To acquire a CD spectrum, the sample is scanned over a wavelength range of about 180-260 nm (spectral width approx. 1 nm). A suitable scan rate is of the order of 100 nm/min for a response time of about 2 seconds. Preferably, however, slower scan speeds (e.g., 5 nm/min, response time around 20 seconds) are used to reduce noise.

[2] = target: T1, Aβ40DI (Homo sapiens, UniProt P05067, D694N/E693Q); experiment: Thioflavin T fluorescence assay of Aβ40DI fibril formation; assay type: biochemical; settings: 12.5 μM Aβ40DI, 1.56 μM protein, PBS, 37° C.
Experimental: FIG. 16 Thioflavin T analysis of inhibition of CAA mutant Aβ fibril formation by MBP. Aβ40DI at a concentration of 12.5 μM in PBS in the absence (□) or presence of 1.56 μM MBP(□) or bovine a-lactalbumin (Lalb; □) as a control. At specific time points, aliquots were collected from each sample and analyzed by thioflavin T binding and fluorescence to determine fibrillar assembly. Data represent the means±S.D. of triplicate samples. A.U., arbitrary units.
The Aβ B binding properties of the exemplary fragments of MBP described herein were determined in a thioflavin T fluorescence assay as follows: Lyophilized Aβ peptides were first resuspended with Me2SO to 2.5 mM, diluted to 12.5 μM in PBS, and then incubated at 37° C. with rocking either alone or with 1.56 μM MBP or bovine α-lactalbumin. Control samples containing 0.5% Me2SO and 1.56 μM MBP or lactalbumin in PBS were also included. At each time point, 100 μl samples of each reaction were placed in a 96-well microplate in triplicate, and 5 μl of 100 µM thioflavin T was added. The plate was mixed and incubated at 22° C. in the dark for 10 min. Fluorescence was measured at 490 nm with an excitation wavelength of 446 nm in a SpectraMax spectrofluorometer (Molecular Devices, Sunnyvale, Calif.) using SoftMax Pro control software. It is apparent that the method enables persons of skill in the art to determine the binding properties of MBP, variants thereof, and fragments thereof for any Aβ-peptide, including mutants thereof.

[3] = target: wild-type Aβ40 (Aβ40WT) (Homo sapiens, UniProt P05067); experiment: Surface plasmon resonance binding to wild-type Aβ40; settings: compared with CAA mutant Aβ40
Experimental: All runs were performed on a Biacore 2000 instrument using 10 mM HEPES (pH 7.4), 150 mM NaCl, 3 mM EDTA, and 0.005% (v/v) Tween 20 as running buffer and diluent. Streptavidiri was conjugated to the surface of three flow cells of a CM5 chip at 10 μl/min using amine coupling chemistry to a final average response level of 1890.2 response units. N-terminally biotinylated Aβ peptides were resuspended in Me2SO to 2.5 mM and serially diluted to 13 nM immediately before application. Biotinylated Aβ40WT and Aβ40DI were bound to individual flow cells at 10 μl/min to achieve an average relative response level of 157.1 response units, leaving flow cell 1 as reference. […] The resultant Rmax of these surfaces was ˜700 response units with MBP as analyte. Purified MBP was passed over all four flow cells at 5, 10, 25, 50, and 100 nM at a flow rate of 30 μl/min for kinetic measurements. […] Surfaces were regenerated with 0.2 M glycine (pH 2.0) and 150 mM NaCl between runs. The resulting sensorgrams were analyzed by BIAanalysis software. Triplicate concentration series were used for each surface.

[4] = target: T1, Aβ40DI; experiment: Co-immunoprecipitation of MBP with Aβ40DI; assay type: binding; settings: purified MBP
Experimental: AP peptides were resuspended in Me2SO to 2.5 mM and used at 10.8 μM. MBP was used at 1.56 μM. Proteins were combined in 250 μl of incubation buffer (PBS, 0.05% Tween 20, and 1% BSA). Anti-MBP mAb 382 was added to each sample mixture and incubated for 1 h at 4° C. with rocking. After incubation, 20 μl of washed GammaBind protein G-Sepharose beads (Amersham Biosciences) were added to each mixture, followed by incubation for an additional 1 h at 4° C. with rocking. Beads were separated by centrifugation at 8000×g for 2 min. Supernatants were removed, and beads were washed with 1 ml of incubation buffer. Separation and washing were repeated three times. A final wash was performed in PBS and 0.05% Tween 20 to remove excess BSA. Centrifuged beads were combined with 25 μl of reducing SDS-PAGE loading buffer and heated as described above. 10 μl of each sample/loading buffer mixture was loaded onto 10-20% Tricine gels (Invitrogen) and electrophoresed at 125 V for 35 min. Immunoblotting was carried out as described above using either biotinylated anti-MBP mAb 384 or biotinylated anti-Aβ mAb 3D6 as primary antibody. Experiments were performed in triplicate.

B1: myelin basic protein (protein)
chain: ASQKRPSQRHGSKYLATASTMDHARHGFLPRHRDTGILDSIGRFFGGDRGAPKRGSGKDSHHPARTAHYGSLPQKSHGRTQDENPVVHFFKNIVTPRTPPPSQGKGRGLSLSRFSWGAEGQRPGFGYGGRASDYKSAHKGFKGVDAQGTLSKIFKLGGRDSRSGSPMARR
notes: myelin basic protein, major form about 18.5 Kd (170 residues); purified protein
[1]
  Aβ42WT fibril formation by circular dichroism: prevents fibril formation
[2]
  inhibition of Aβ40DI fibril assembly (thioflavin T): completely inhibits; also recorded: inhibit
[3]
  binding to wild-type Aβ40: Significantly weaker binding
[4]
  preference for Aβ40DI over Aβ40WT by immunoprecipitation: showed no preference
